Reference: patent US20200155661A1 (LENTIGEN TECHNOLOGY, published 2020)
Changes are numbered by the printed parent chain.

B1: CD22-specific binder (scFv5) 12s (scFv)
scFv: QVQLQQSGPGLVKPSQTLSLTCAISGDSVSSNSAAWNWIRQSPSRGLEWLGRTYYRSKWYNDYAVSVKSRITINPDTSKNQFSLQLNSVTPEDTAVYYCAREGDDALDIWGQGTMVTVSSGGGGSGGGGSGGGGSDIQMTQSPSSLSASVGDRVTITCRASQSISHFLNWYQQKPGTAPKLLITTASGLGSGVPSRFSGSGSGTDFTLTINSLQPEDLATYYCQQSYTTPLTFGGGTKLEIKR
B2: CD22-specific binder (scFv3) 25P (scFv)
scFv: QVQLQQSGPGLVKPSQTLSLTCAISGDSVSSNSAAWNWIRQSPSRGLEWLGRTYYRSKWYNDYAVSVKSRITINPDTSKNQFSLQLNSLTPEDTAVYYCAREHQNEAAFDIWGQGTMVTVSSGGGGSGGGGSGGGGSQSVLTQPPSASGTPGQRVTISCSGGGSNIGTNTASWYQQLPGTAPKLLIYRNTQRPSGIPDRFSGSKSGTSASLAISGLQSEDEADYYCAAWDDSLNGYVFGAGTQLTVLG
notes: Lambda light chain
B3: CD22-specific binder (scFv18) 16P15 (scFv)
scFv: QVQLQQSGPGLVKPSQTLSLTCAISGDSVSSNSAAWNWIRQSPSRGLEWLGRTYYRSKWYNDYAVSVKSRITINPDTSKNQFSLQLNSVTPEDTAVYYCAQEVEPHDALDIWGQGTMVTVSSGGGGSGGGGSGGGGSDIQMTQSPSSVSASVGDKVTITCRASQDVSGWLAWYQQKPGLAPQLLIFGASTLQGEVPSRFSGSGSGTDFTLTISSLQPEDFATYYCQQAKYFPYTFGQGTKLEIK
B4: CD22-specific binder (scFv8) 16P20 (scFv)
scFv: B3 scFv
B5: CD22-specific binder (scFv6) 16P3 (scFv)
scFv: B3 scFv with V2I, E104Q, H106D, F186S, Y230N
B6: CD22-specific binder (scFv9) 16P2 (scFv)
scFv: B3 scFv with S78F, Q140K
B7: CD22-specific binder (scFv10) 16P6 (scFv)
scFv: B3 scFv with E104Q, H106D, L109F, V118I, F186S, E194G, Y230N
B8: CD22-specific binder (scFv15) 16P3v2 (scFv)
scFv: B3 scFv with P14H, T21A, E104Q, H106Q, S147F, T157I, F186S
B9: CD22-specific binder (scFv11) 16P10 (scFv)
scFv: B3 scFv with H106Q, L109F, Q237P
B10: CD22-specific binder (scFv7) 16P16 (scFv)
scFv: B3 scFv with S78F, Q140K
B11: CD22-specific binder (scFv13) 16P20v2 (scFv)
scFv: B3 scFv with E104Q, H106D, L109F, F186S, Y230N
B12: CD22-specific binder (scFv16) 16P8 (scFv)
scFv: B3 scFv with N61T, S69N, H106Q, L109F, Q237R
B13: CD22-specific binder (scFv14) 16P1 (scFv)
scFv: B3 scFv with A23D, V103I, L109F, G113D, D138V, F186S, T190S, E194G
B14: CD22-specific binder (scFv17) 16P13 (scFv)
scFv: B3 scFv with D27N, H106Q, L109F, S202G
B15: CD22-specific binder (scFv12) 16P17 (scFv)
scFv: B3 scFv with P14H, L109F, S149Y, F186S
B16: CD22-specific binder (scFv1) 16P (scFv)
scFv: QVQLQQSGPGLVKPSQTLSLTCAISGDSVSSNSAAWNWIRQSPSRGLEWLGRTYYRSKWYNDYAVSVKSRITINPDTSKNQFSLQLNSVTPEDTAVYYCAQEVQPHDAFDIWGQGTMVTVSSGGGGSGGGGSGGGGSDIQMTQSPSSVSASVGDKVTITCRASQDVSGWLAWYQQKPGLAPQLLIFGASTLQGEVPSRFSGSGSGTDFTLTISSLQPEDFATYYCQQAKNFPYTFGQGTKLEIKR
notes: also called founder clone

Target: T1, CD22 expressed on cells (CHOK1-CD22, K562-CD22, Raji, Reh) (human, UniProt P20273 20-847)
T1 construct: whole, on cells; also called SIGLEC-2; Leu14
Assay: yeast display cell panning on CHOK1 cells transfected with CD22
Procedure: The same ScFv starting material as for phage display was also incorporated into a yeast ScFv display system. To supplement phage-based scFv analysis, yeast libraries expressing the human scFv library were also screened. To enrich the yeast expressing scFvs that bind to both the recombinant CD22-Fc and the […] expressed on the cell surface of the CHOK1 cells, cell panning on CHOK1 transfected with CD22 cells was performed. For the first round of panning on the cell surface, two days prior to panning, the CHOK1-CD22 cells were seeded into 6-well plates and grown to 50% confluency in F12 K medium. 5×10⁷ yeast cells were then washed 2× with PBSA buffer and resuspended into 3 mL F12 K medium, and then gently added dropwise to the CHOK1-CD22 cells. […] The cell mix containing both the yeast and CHOK1 cells were then inoculated into 10 mL SDCAA medium and amplified overnight at 30° C. and then induced in SGCAA medium at 30° C. for 16 hours. For the second round of cell panning, a similar protocol as above was performed, but more stringent wash conditions were used. […] Binder sequences were incorporated into CART constructs as described in Example 2, infra, in a series of in vitro CART functional assays.

| binding result | Binder |
| --- | --- |
| binds | B1 |
| binds | B2 |

Target: T2, recombinant human CD22 (labeled CD22 used in flow cytometry of yeast) (human, UniProt P20273 20-687, limits assumed, fluorescent label, not specified)
T2 construct: also called fluorescently tagged antigen
Assay: flow cytometry of yeast-displayed scFv with decreasing amounts of labeled CD22
Procedure: After electroporation, the resulting mutant library was then grown overnight at 30° C. for 16 hours in SDCAA medium and then switched into SGCAA medium at 30° C. for another 16 hours. The mutant library was then sorted through MACS (immunomagentic column, Miltenyi Biotec) with CD22-Fc as the capture antigen to downsize the library and to increase the population of mutants that could bind to CD22-Fc. The strongest binders were then selected by double staining the pools with Anti-c-Myc-Alexa 488 and […]/Anti-Hu-Fc and selecting for the binders that had the highest binding affinities as well as c-Myc expression levels. […] Binding affinities were estimated by flow cytometry of yeast pools using decreasing amounts of labeled CD22.

| EC50 [µg/mL] | Binder |
| --- | --- |
| < 0.01 | B3 |
| < 0.01 | B4 |
| < 0.01 | B5 |
| < 0.01 | B6 |
| < 0.01 | B7 |
| < 0.01 | B8 |
| < 0.01 | B9 |
| < 0.01 | B10 |
| < 0.01 | B11 |
| < 0.01 | B12 |
| < 0.01 | B13 |
| < 0.01 | B14 |
| < 0.01 | B15 |
| 0.5 | B16 |
